Source: the Immune Epitope Database (IEDB)

What follows are sequences tested against HLA-A*02:01 (assay: IEDB peptide-MHC binding, cellular MHC/competitive/fluorescence; ≥ and ≤ were set here for values at or beyond the usual limits of such assays). Settings: source organism: Mammarenavirus brazilense.
Sequence AINIALIAV has an IC50 of 8.3 µM.

Same assay, conditions: source organism: Vaccinia virus WR
KIAISSLNKL gave an IC50 of 36.6 µM. YVESKLVDI was tested, and the IC50 was 25.3 µM. Sequence DLAFLIKFIT has an IC50 of 6.32 µM. Sequence NVILSPPINA has an IC50 of 7.25 µM. GIVLSNTSTA showed an IC50 of 13.1 µM. ILYKVRKNFT was tested, and the IC50 was 7.65 µM. For NTCLRCSKL, the IC50 was 24.6 µM. For PTINKSIYII, the IC50 was 6.11 µM. Sequence HLSCKSGFT has an IC50 of 6.23 µM. Work on ITFALKKLI yielded an IC50 of no less than 70 µM. EVFHCMDILT was tested, and the IC50 was 14.8 µM. DTQQHPIVVL was tested, and the IC50 was no less than 70 µM. TVMNNLSELT showed an IC50 of 11.9 µM. FTVTNKEGV showed an IC50 of 10.3 µM. Work on STILNSIDI yielded an IC50 of 7.49 µM. ITTMDGDKL was tested, and the IC50 was 15 µM. Work on IATYIDALA yielded an IC50 of 12.4 µM. In the case of SISIKLTDSL, the IC50 is reported as 6.24 µM. With FTNKRTRGPL the IC50 was 16.2 µM. RTDTTICLSI was tested, and the IC50 was 11 µM. Work on DLVVLGKVTI yielded an IC50 of 10.9 µM. Work on LITTMDGDKL yielded an IC50 of no less than 70 µM. LVTKYPMDNV showed an IC50 of 12.9 µM. VIYPNFSKA gave an IC50 of 14.2 µM. ELVNLIQAKT gave an IC50 of no less than 70 µM. SVNKFKFGAA showed an IC50 of no less than 70 µM. EVSINVDST gave an IC50 of no less than 70 µM. With AVCNLASVA the IC50 was 17.8 µM. VIGASYISCT showed an IC50 of 17.8 µM. GTETKITFA showed an IC50 of 60.6 µM. RVETSPRPTA gave an IC50 of 36.5 µM. For YASIINRDII, the IC50 was 7.11 µM. ELFIKALSDA was tested, and the IC50 was 10.9 µM. Sequence AIMFKDDNI has an IC50 of 9.74 µM. With ATDPDADAI the IC50 was 39.1 µM. DTQQHPIVV showed an IC50 of 13.9 µM. In the case of MTENVEEDLA, the IC50 is reported as 24.5 µM. Sequence IQETIRSDT has an IC50 of 49.6 µM. TACNNTIII showed an IC50 of 11.3 µM. SVFAASKQQM was tested, and the IC50 was no less than 70 µM. For NAKCIEYVTL, the IC50 was 38 µM. Sequence LQKVLHVTDT has an IC50 of no less than 70 µM. With NQCMSANEA the IC50 was 13.3 µM. In the case of IAHLLEHLL, the IC50 is reported as 14.1 µM. FASGNSIDDI gave an IC50 of 9.21 µM. KVRIFINDRM was tested, and the IC50 was 39.7 µM. In the case of DMPSLSNGL, the IC50 is reported as 47.2 µM. With EIPTRTLDT the IC50 was 5.98 µM. For VTDTINTVL, the IC50 was 13.6 µM. Work on RTKIPLSKV yielded an IC50 of no less than 70 µM. EAVKDKNWTV showed an IC50 of 14.8 µM. With TIDGVSKKNI the IC50 was no less than 70 µM. QTPIQSDAGM was tested, and the IC50 was 34.3 µM. For NIHNHMIKV, the IC50 was 6.46 µM. ITDAAVAVAA was tested, and the IC50 was 6.51 µM. Sequence ELDTLAAEI has an IC50 of 9.53 µM. For TVPTMNNAKL, the IC50 was 41.7 µM. In the case of PVVFYRSGT, the IC50 is reported as 15.4 µM. Sequence IVLSNTSTA has an IC50 of 16.9 µM. For PTLDNILGIL, the IC50 was 63.7 µM. DANVVSSST gave an IC50 of 7.63 µM. For IIKKNDIVRV, the IC50 was 48.4 µM. DIVGLDLENL was tested, and the IC50 was 16.6 µM. PAAMYQYIFL gave an IC50 of 5.57 µM. With IVLPNKVRI the IC50 was 35.1 µM. ILSIVGFRPT showed an IC50 of 38.1 µM. In the case of QQKKCKYCI, the IC50 is reported as 38.8 µM. LLVATDPDA gave an IC50 of 17.4 µM. VTINNLKMM showed an IC50 of 9.06 µM. Work on VTSSGAIYKL yielded an IC50 of 16.1 µM. In the case of NTRDTQQHPI, the IC50 is reported as no less than 70 µM. With KAVIEYDDI the IC50 was 37.6 µM. In the case of PVNNNIVLHT, the IC50 is reported as 35.8 µM. AASSTHRKVA was tested, and the IC50 was no less than 70 µM. For DILANRDSTL, the IC50 was 34.5 µM. VIFLISVIV gave an IC50 of 13.6 µM. EITELVVEYM was tested, and the IC50 was 35.6 µM. ELTASGGKV showed an IC50 of 49.8 µM. Work on KIEPRNILI yielded an IC50 of 8.32 µM. LIKLIEPVNA was tested, and the IC50 was 55.6 µM. In the case of HLNPSRIRIT, the IC50 is reported as no less than 70 µM. ETDRENAII showed an IC50 of 67.3 µM. Sequence PTRTLDTAI has an IC50 of no less than 70 µM. For TQHPDYAILA, the IC50 was 6.73 µM. For IVTLQKVLHV, the IC50 was 32.9 µM. With ETSFIFIET the IC50 was 8.82 µM. With VATDPDADA the IC50 was no less than 70 µM. Sequence TMSTPMTEYI has an IC50 of 7.95 µM. Sequence TTSSREERVL has an IC50 of no less than 70 µM. Sequence RTRGPLGIL has an IC50 of 51.3 µM. In the case of ETIGNQLYLT, the IC50 is reported as 14.6 µM. In the case of NIVWEKKSL, the IC50 is reported as 10.9 µM. STAVNEEWLT was tested, and the IC50 was 25.4 µM. TLPNKSDVLI showed an IC50 of 5.32 µM. With WLTAVEHIPT the IC50 was 6.96 µM. PIIFGESSI gave an IC50 of 34.7 µM. NTFPNITLKI gave an IC50 of 10.1 µM. Sequence SVFYRGAENI has an IC50 of 20.8 µM. With NTDSEMDQRL the IC50 was no less than 70 µM. Work on DLENLYAVT yielded an IC50 of 6.55 µM. In the case of DVTAKSSFV, the IC50 is reported as 8.56 µM. With GVKIRTKIPL the IC50 was 12.7 µM. HIIIVALTI gave an IC50 of 7.72 µM. KLSKLTDKKT gave an IC50 of no less than 70 µM.
